Data on 1 molecule can be found in publication PMC11530598 (2024).

In the test the target is T1, MAP1B LC-mScarlet (Mus musculus (Mouse), UniProt P14873).
T1 chain: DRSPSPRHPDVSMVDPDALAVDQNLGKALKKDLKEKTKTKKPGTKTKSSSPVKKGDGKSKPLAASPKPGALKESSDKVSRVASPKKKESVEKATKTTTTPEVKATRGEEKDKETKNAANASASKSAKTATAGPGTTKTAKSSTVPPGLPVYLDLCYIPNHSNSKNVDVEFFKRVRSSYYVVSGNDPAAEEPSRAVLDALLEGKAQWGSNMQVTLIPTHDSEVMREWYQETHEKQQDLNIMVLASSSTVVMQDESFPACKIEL
Briefly: TIRF microscopy recruitment assay on microtubules; tested on taxol-stabilised microtubules.

B1: sfGFP-MAP1B HC^1-532 (protein)
chain: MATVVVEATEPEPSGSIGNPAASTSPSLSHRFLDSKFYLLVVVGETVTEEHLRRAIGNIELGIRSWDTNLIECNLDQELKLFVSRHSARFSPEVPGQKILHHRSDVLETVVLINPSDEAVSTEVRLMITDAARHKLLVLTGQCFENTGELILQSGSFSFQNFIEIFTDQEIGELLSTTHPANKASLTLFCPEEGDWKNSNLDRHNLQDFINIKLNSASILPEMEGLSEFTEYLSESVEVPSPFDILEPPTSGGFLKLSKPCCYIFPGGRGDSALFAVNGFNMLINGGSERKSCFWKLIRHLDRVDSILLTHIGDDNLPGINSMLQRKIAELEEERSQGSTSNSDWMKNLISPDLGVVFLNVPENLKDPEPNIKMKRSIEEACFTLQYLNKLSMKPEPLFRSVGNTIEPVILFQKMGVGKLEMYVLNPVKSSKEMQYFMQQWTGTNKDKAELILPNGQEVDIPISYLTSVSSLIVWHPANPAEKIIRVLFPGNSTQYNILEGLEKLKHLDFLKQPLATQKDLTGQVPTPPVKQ
Consider B1, for which the binding result is given as “no binding”.
